Assay [1] has as its target KEAP1 (wild-type full-length), His-tagged (human) (UniProt Q14145). In words: AlphaScreen; 19.2 nM FLAG-NRF2, 150 nM His-KEAP1 (same value as in Table 26).
The target is the same in assay [2]. In words: AlphaScreen; 9.6 nM FLAG-NRF2, 150 nM His-KEAP1; Rep 2; control for I28V. (In Alpha technology, singlet oxygen from a donor bead excites a nearby acceptor bead.)
Assay [3] has the same target. Kind of assay: AlphaScreen; FLAG-NRF2 wt isoform 1 38.4 nM, His-KEAP1 150 nM; Rep 1; positive control for Q75R.
Assay [4] has the same target. Kind of assay: AlphaScreen; 4.8 nM FLAG-NRF2, 150 nM His-KEAP1; Rep 2; control for I86V.
Assay [5] shares this target. In words: AlphaScreen; FLAG-NRF2 wt isoform 1 19.2 nM, His-KEAP1 150 nM; Rep 2; positive control for Q75R.
Assay [6] shares this target. Kind of assay: AlphaScreen; 307.2 nM FLAG-NRF2, 150 nM His-KEAP1; signal against NRF2 only; control for I28V.
Assay [7] shares this target. Kind of assay: AlphaScreen; 38.4 nM FLAG-NRF2, 150 nM His-KEAP1; Rep 3; control for I86V.
For assay [8] the target is unchanged. Kind of assay: AlphaScreen; NRF2 wt isoform 1 19.2 nM, KEAP1 150 nM; set as the 100 % reference for I86V.
Assay [9] shares this target. In words: AlphaScreen; 4.8 nM FLAG-NRF2, 150 nM His-KEAP1; Rep 3; control for I86V.
For assay [10] the target is unchanged. In words: AlphaScreen; 4.8 nM FLAG-NRF2, 150 nM His-KEAP1; Rep 1; control for I28V.
Assay [11] shares this target. In words: AlphaScreen; 19.2 nM FLAG-NRF2, 150 nM His-KEAP1; wild type set to 100%.
Assay [12] shares this target. Kind of assay: AlphaScreen; FLAG-NRF2 wt isoform 1 38.4 nM, His-KEAP1 150 nM; Repeat 1; positive control for Q75R.
Assay [13] shares this target. Kind of assay: AlphaScreen; FLAG-NRF2 I86V 4.8 nM, His-KEAP1 150 nM; Rep 2.
Assay [14] shares this target. In words: AlphaScreen; NRF2 I86V 76.8 nM, KEAP1 150 nM; signal against NRF2-only control.
Assay [15] shares this target. In words: AlphaScreen; NRF2 I86V 9.6 nM, KEAP1 150 nM; relative to wild-type NRF2 isoform 1 (100 %).
Assay [16] has the same target. In words: AlphaScreen; FLAG-NRF2 I86V 19.2 nM, His-KEAP1 150 nM; Rep 1.
The target is the same in assay [17]. Kind of assay: AlphaScreen; NRF2 I86V 2.4 nM, KEAP1 150 nM; signal against NRF2-only control.
Assay [18] shares this target. In words: AlphaScreen; FLAG-NRF2 I86V 76.8 nM, His-KEAP1 150 nM; Rep 3.
For assay [19] the target is unchanged. In words: AlphaScreen; 2.4 nM FLAG-NRF2, 150 nM His-KEAP1; Rep 1.
The target is the same in assay [20]. Kind of assay: AlphaScreen; 153.6 nM FLAG-NRF2, 150 nM His-KEAP1; Rep 2.
The target is the same in assay [21]. In words: AlphaScreen; 2.4 nM FLAG-NRF2, 150 nM His-KEAP1; signal against NRF2 only.
Assay [22] has the same target. In words: AlphaScreen; 19.2 nM FLAG-NRF2, 150 nM His-KEAP1; Repeat 1 (same value as in Table 27).
Assay [23] shares this target. In words: AlphaScreen; 76.8 nM FLAG-NRF2, 150 nM His-KEAP1; Rep 1.
Assay [24] has the same target. Kind of assay: AlphaScreen; FLAG-NRF2 Q75R 9.6 nM, His-KEAP1 150 nM; Rep 2.
For assay [25] the target is unchanged. In words: AlphaScreen; NRF2 Q75R 38.4 nM, KEAP1 150 nM; relative to wild-type NRF2 isoform 1 (100 %).
For assay [26] the target is unchanged. In words: AlphaScreen; FLAG-NRF2 Q75R 76.8 nM, His-KEAP1 150 nM; Rep 1.
Assay [27] has the same target. Kind of assay: AlphaScreen; FLAG-NRF2 Q75R 76.8 nM, His-KEAP1 150 nM; Rep 2.

Sequence of KEAP1 (wild-type full-length), His-tagged (human) (Q14145 2-624 limits assumed): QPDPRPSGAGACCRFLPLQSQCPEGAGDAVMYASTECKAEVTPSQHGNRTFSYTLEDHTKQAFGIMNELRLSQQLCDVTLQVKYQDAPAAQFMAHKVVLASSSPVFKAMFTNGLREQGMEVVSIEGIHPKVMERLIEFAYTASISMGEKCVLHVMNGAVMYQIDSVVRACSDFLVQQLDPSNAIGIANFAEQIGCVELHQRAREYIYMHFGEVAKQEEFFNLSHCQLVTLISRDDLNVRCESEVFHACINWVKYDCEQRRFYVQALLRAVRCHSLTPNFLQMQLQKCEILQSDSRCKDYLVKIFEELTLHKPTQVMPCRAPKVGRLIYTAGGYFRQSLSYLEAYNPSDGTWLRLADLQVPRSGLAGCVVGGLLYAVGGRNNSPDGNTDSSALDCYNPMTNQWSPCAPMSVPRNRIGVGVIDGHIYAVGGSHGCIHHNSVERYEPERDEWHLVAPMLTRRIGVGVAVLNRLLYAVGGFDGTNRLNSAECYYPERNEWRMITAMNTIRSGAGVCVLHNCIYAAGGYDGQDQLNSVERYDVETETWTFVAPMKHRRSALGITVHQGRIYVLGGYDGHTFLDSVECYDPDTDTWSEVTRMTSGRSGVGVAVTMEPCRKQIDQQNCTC

B1: NRF2 isoform 1 (wild-type full-length), FLAG-tagged (protein)
chain: MMDLELPPPGLPSQQDMDLIDILWRQDIDLGVSREVFDFSQRRKEYELEKQKKLEKERQEQLQKEQEKAFFAQLQLDEETGEFLPIQPAQHIQSETSGSANYSQVAHIPKSDALYFDDCMQLLAQTFPFVDDNEVSSATFQSLVPDIPGHIESPVFIATNQAQSPETSVAQVAPVDLDGMQQDIEQVWEELLSIPELQCLNIENDKLVETTMVPSPEAKLTEVDNYHFYSSIPSMEKEVGNCSPHFLNAFEDSFSSILSTEDPNQLTVNSLNSDATVNTDFGDEFYSAFIAEPSISNSMPSPATLSHSLSELLNGPIDVSDLSLCKAFNQNHPESTAEFNDSDSGISLNTSPSVASPEHSVESSSYGDTLLGLSDSEVEELDSAPGSVKQNGPKTPVHSSGDMVQPLSPSQGQSTHVHDAQCENTPEKELPVSPGHRKTPFTKDKHSSRLEAHLTRDELRAKALHIPFPVEKIINLPVVDFNEMMSKEQFNEAQLALIRDIRRRGKNKVAAQNCRKRKLENIVELEQDLDHLKDEKEKLLKEKGENDKSLHLLKKQLSTLYLEVFSMLRDEDGKPYSPSEYSLQQTRDGNVFLVPKSKKPDVKKN
B1: the S/N in [1] stood at 4.2; in assay [6], 1.3. In addition, the A-counts stood at 1640 A-counts in [2]; 1620 A-counts in [4]; 3130 A-counts in assay [7]; 1860 A-counts in assay [9]; 1120 A-counts in assay [10]. In addition, the A-counts (NRF2 plus KEAP1) in assay [3], in assay [5] and in assay [12] was 1480 A-counts in each case. In addition, the Binding Percentage in assay [8] was found to be 100%. In [11], the Binding Percentage (%) stood at 100%.

B2: NRF2 isoform 1 (I86V full-length), FLAG-tagged (protein)
chain: MMDLELPPPGLPSQQDMDLIDILWRQDIDLGVSREVFDFSQRRKEYELEKQKKLEKERQEQLQKEQEKAFFAQLQLDEETGEFLPVQPAQHIQSETSGSANYSQVAHIPKSDALYFDDCMQLLAQTFPFVDDNEVSSATFQSLVPDIPGHIESPVFIATNQAQSPETSVAQVAPVDLDGMQQDIEQVWEELLSIPELQCLNIENDKLVETTMVPSPEAKLTEVDNYHFYSSIPSMEKEVGNCSPHFLNAFEDSFSSILSTEDPNQLTVNSLNSDATVNTDFGDEFYSAFIAEPSISNSMPSPATLSHSLSELLNGPIDVSDLSLCKAFNQNHPESTAEFNDSDSGISLNTSPSVASPEHSVESSSYGDTLLGLSDSEVEELDSAPGSVKQNGPKTPVHSSGDMVQPLSPSQGQSTHVHDAQCENTPEKELPVSPGHRKTPFTKDKHSSRLEAHLTRDELRAKALHIPFPVEKIINLPVVDFNEMMSKEQFNEAQLALIRDIRRRGKNKVAAQNCRKRKLENIVELEQDLDHLKDEKEKLLKEKGENDKSLHLLKKQLSTLYLEVFSMLRDEDGKPYSPSEYSLQQTRDGNVFLVPKSKKPDVKKN
On to B2, for which the figures for the A-counts (NRF2 plus KEAP1) in assay [13], in assay [16] and in assay [18] were 2110 A-counts, 3120 A-counts and 2560 A-counts, respectively. For the same molecule, the S/N worked out at 2.3 in assay [14] and 2.6 in assay [17]. The same molecule registered a Binding Percentage in assay [15] of 99.1%.

B3: NRF2 isoform 1 (I28V full-length), FLAG-tagged (protein)
chain: MMDLELPPPGLPSQQDMDLIDILWRQDVDLGVSREVFDFSQRRKEYELEKQKKLEKERQEQLQKEQEKAFFAQLQLDEETGEFLPIQPAQHIQSETSGSANYSQVAHIPKSDALYFDDCMQLLAQTFPFVDDNEVSSATFQSLVPDIPGHIESPVFIATNQAQSPETSVAQVAPVDLDGMQQDIEQVWEELLSIPELQCLNIENDKLVETTMVPSPEAKLTEVDNYHFYSSIPSMEKEVGNCSPHFLNAFEDSFSSILSTEDPNQLTVNSLNSDATVNTDFGDEFYSAFIAEPSISNSMPSPATLSHSLSELLNGPIDVSDLSLCKAFNQNHPESTAEFNDSDSGISLNTSPSVASPEHSVESSSYGDTLLGLSDSEVEELDSAPGSVKQNGPKTPVHSSGDMVQPLSPSQGQSTHVHDAQCENTPEKELPVSPGHRKTPFTKDKHSSRLEAHLTRDELRAKALHIPFPVEKIINLPVVDFNEMMSKEQFNEAQLALIRDIRRRGKNKVAAQNCRKRKLENIVELEQDLDHLKDEKEKLLKEKGENDKSLHLLKKQLSTLYLEVFSMLRDEDGKPYSPSEYSLQQTRDGNVFLVPKSKKPDVKKN
For the molecule B3, the A-counts in assay [19] stood at 697 A-counts; in [20], 1440 A-counts; in [22] it was 1730 A-counts; in assay [23], 1560 A-counts. The molecule also displayed a S/N in assay [21] of 2.2.

B4: NRF2 isoform 1 (Q75R full-length), FLAG-tagged (protein)
chain: MMDLELPPPGLPSQQDMDLIDILWRQDIDLGVSREVFDFSQRRKEYELEKQKKLEKERQEQLQKEQEKAFFAQLRLDEETGEFLPIQPAQHIQSETSGSANYSQVAHIPKSDALYFDDCMQLLAQTFPFVDDNEVSSATFQSLVPDIPGHIESPVFIATNQAQSPETSVAQVAPVDLDGMQQDIEQVWEELLSIPELQCLNIENDKLVETTMVPSPEAKLTEVDNYHFYSSIPSMEKEVGNCSPHFLNAFEDSFSSILSTEDPNQLTVNSLNSDATVNTDFGDEFYSAFIAEPSISNSMPSPATLSHSLSELLNGPIDVSDLSLCKAFNQNHPESTAEFNDSDSGISLNTSPSVASPEHSVESSSYGDTLLGLSDSEVEELDSAPGSVKQNGPKTPVHSSGDMVQPLSPSQGQSTHVHDAQCENTPEKELPVSPGHRKTPFTKDKHSSRLEAHLTRDELRAKALHIPFPVEKIINLPVVDFNEMMSKEQFNEAQLALIRDIRRRGKNKVAAQNCRKRKLENIVELEQDLDHLKDEKEKLLKEKGENDKSLHLLKKQLSTLYLEVFSMLRDEDGKPYSPSEYSLQQTRDGNVFLVPKSKKPDVKKN
In the case of B4, the A-counts (NRF2 plus KEAP1) in [24] stood at 1090 A-counts; in assay [26], 1110 A-counts; in [27], 1150 A-counts. In addition, in assay [25], the Binding Percentage turned out to be 73.4%.

Values taken from patent publication US20250352667A1.
